Measured values: patent US20260015418A1 (ABL BIO, published 2026)
Values belong to the binder of their own block, whether it stands above or below them.

Key:
[1] = target: T1, human ROR1 protein (ROR1-His; Sino Biological, Catalog #13968-H08H) (human, UniProt Q01973 30-406); assay: ELISA, plate coated with ROR1-His (1 ug/ml), bound antibody detected with HRP-conjugated anti-Fab polyclonal antibody, OD at 450 nm
T1 construct: extracellular domain; Bought protein; also called human recombinant ROR1 protein
Method: (§1) The binding affinity of the anti-ROR1 antibody-antigen was evaluated using an ELISA-based solution binding assay. Specifically, 96-well microtiter plates (Nunc-Immuno Plates, NUNC) were coated with ROR1 protein (ROR1-His; sino biological, Catalog #13968-H08H) at a concentration of 1 μg/ml in PBS solution at 4° C. for 16 hours, and non-specific binding sites were blocked with 1% (v/v) BSA (bovine serum albumin) for 2 hours.
(§2) Subsequently, on the 96-well microtiter plates, anti-ROR1 antibodies at concentrations stated in FIGS. 1a to 1c were added to the microtiter plates, and their binding capabilities were analyzed by ELISA as follows. Specifically, after incubating at 37° C. for 2 hours, the plates were washed five times with PBS containing 0.05% (v/v) Tween 20, then the HRP-conjugated Fab polyclonal antibody reagent (Pierce, Catalog #31414) was diluted at a 1:30,000 ratio and added to the washed microtiter plates, then reacted for 1 hour at 37° C., then detected the bound anti-ROR1 antibodies. After reaction, the color was developed using TMB (tetramethylbenzidine, Sigma, T0440). The enzymatic reaction was stopped with 0.5 mol/L sulfuric acid, and the absorbance was read at 450 nm and 650 nm using a microplate reader (Molecular Devices).

[2] = target: T1, human ROR1 protein (ROR1-His; Sino …); assay: ELISA, plate coated with ROR1-His (1 ug/ml), bound antibody detected with HRP-conjugated anti-Fab polyclonal antibody, OD at 450 nm; lower graph and table
Method: as §1, §2

[3] = target: T2, human B7-H3 on CHO-huROR1-huB7-H3 cells (human, UniProt Q5ZPR3 29-534); assay: flow cytometry on CHO-huROR1-huB7-H3 cells, FITC anti-human IgG, MFI over secondary antibody only
T2 construct: whole, on cells; also called cell surface B7-H3
T2 sequence (looked up): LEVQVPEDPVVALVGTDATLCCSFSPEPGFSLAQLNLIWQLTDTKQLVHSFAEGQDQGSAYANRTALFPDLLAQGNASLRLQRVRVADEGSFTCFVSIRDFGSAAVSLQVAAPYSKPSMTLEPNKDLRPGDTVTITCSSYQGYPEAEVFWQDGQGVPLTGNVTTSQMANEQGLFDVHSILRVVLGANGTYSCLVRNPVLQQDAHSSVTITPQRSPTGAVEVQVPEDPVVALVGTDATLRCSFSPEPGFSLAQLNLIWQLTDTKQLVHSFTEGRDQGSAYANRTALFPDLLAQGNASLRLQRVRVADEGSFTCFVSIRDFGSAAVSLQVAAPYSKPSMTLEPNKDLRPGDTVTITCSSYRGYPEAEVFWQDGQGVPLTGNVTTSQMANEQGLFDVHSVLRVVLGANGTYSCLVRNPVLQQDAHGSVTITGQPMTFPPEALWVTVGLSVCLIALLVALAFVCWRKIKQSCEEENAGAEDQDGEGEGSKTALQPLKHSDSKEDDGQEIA
Description: To evaluate the cell-binding ability of the anti-ROR1/B7-H3 bispecific antibody, cells expressing both ROR1 and B7-H3 were used to compare the cell-binding ability of the bispecific antibody with that of the monospecific antibodies.
As a cell line for the comparison of cell-binding ability, CHO-huROR1-huB7-H3 cell line (obtained by transfecting the ROR1-CHO recombinant cell line (BPS Bioscience) with the human B7-H3 gene (Origene) and selecting for the desired gene-inserted single cells using G418), which stably transfected the human ROR1 and human B7-H3 gene to artificially overexpress both human ROR1 and human B7-H3 proteins were used, and analysis was performed using a flow cytometer (LSRFortessa X-20, BD Biosciences). Specifically, after dissociating and washing the overexpressing cell line with PBS, the cell number was counted, and the cells were seeded at a density of 2×10⁵ cells per well into a V-bottom 96-well plate (96 Well Plate-RV, Bioneer, 910D09). Antibodies diluted 4-fold starting from 100 nM in 1% BSA solution were added at 100 μL per well to the centrifuged cells and incubated at 4° C. for 1 hour. […] After the reaction, the cells were washed twice with the same buffer, resuspended in 100 μL of PBS, and analyzed using a FACS instrument. A total of 10,000 cells were detected per measurement, and the data was analyzed using FlowJo software. […]

[4] = target: T1, human ROR1 protein (ROR1-His; Sino …); assay: ELISA, plate coated with ROR1-His (1 ug/ml), bound antibody detected with HRP-conjugated anti-Fab polyclonal antibody, OD at 450 nm; upper graph and table
Method: as §1, §2

[5] = target: T1, human ROR1 protein (ROR1-His; Sino …); assay: ELISA, plate coated with ROR1-His (1 ug/ml), bound antibody detected with HRP-conjugated anti-Fab polyclonal antibody, OD at 450 nm; upper table (the graph's legend names the third curve M8_N97G)
Method: as §1, §2

[6] = target: T1, human ROR1 protein (ROR1-His; Sino …); assay: ELISA, plate coated with ROR1-His (1 ug/ml), bound antibody detected with HRP-conjugated anti-Fab polyclonal antibody, OD at 450 nm; lower graph and table; remark: listed apart in the source
Method: as §1, §2

[7] = target: T1, human ROR1 protein (ROR1-His; Sino …); assay: ELISA, plate coated with ROR1-His (1 ug/ml), bound antibody detected with HRP-conjugated anti-Fab polyclonal antibody, OD at 450 nm; upper graph and table; remark: listed apart in the source
Method: as §1, §2

B1: M1 (PTM mutant of BA6 IgG) (antibody, V domains shown)
VH: EVQLLESGGGLVQPGGSLRLSCAASGFTFSNYDMSWVRQAPGKGLEWVSAIYHSGSSKYYADSVKGRFTISRDNSKNTLYLQMNSLRAEDTAVYYCARGGNGAWDTGFDYWGQGTLVTVSS
VL: QSVLTQPPSASGTPGQRVTISCSGSSSNIGSNDVSWYQQLPGTAPKLLIYYANNRPSGVPDRFSGSKSGTSASLAISGLRSEDEADYYCGAWDDSLSGYVFGGGTKLTVL
notes: IgG of BA6 with one mutation
EC50 [1]: 0.326 nM

B3: B5 (antibody, V domains shown)
VH: EVQLLESGGGLVQPGGSLRLSCAASGFTFSDYAMSWVRQAPGKGLEWVSSISSGSGSIYYADSVKGRFTISRDNSKNTLYLQMNSLRAEDTAVYYCAKNLIPLDYWGQGTLVTVSS
VL: QSVLTQPPSASGTPGQRVTISCSGSSSNIGSNAVSWYQQLPGTAPKLLIYYNSHRPSGVPDRFSGSKSGTSASLAISGLRSEDEADYYCGSWDASLNAYVFGGGTKLTVL
notes: also called anti-B7-H3 monospecific antibody B5; anti-B7-H3 antibody clone B5 (WO2019-226017 A1)
EC50 (read off the curve) [3]: ~1 nM

B6: M2 (PTM mutant of BA6 IgG) (antibody, V domains shown)
VH: EVQLLESGGGLVQPGGSLRLSCAASGFTFSNYDMSWVRQAPGKGLEWVSAIYHSGSSKYYADSVKGRFTISRDNSKNTLYLQMNSLRAEDTAVYYCARGGNGAWDTGFDYWGQGTLVTVSS
VL: QSVLTQPPSASGTPGQRVTISCSGSSSNIGSNDVSWYQQLPGTAPKLLIYYTNNRPSGVPDRFSGSKSGTSASLAISGLRSEDEADYYCGAWDDSLSGYVFGGGTKLTVL
notes: IgG of BA6 with one mutation; Kabat L51
EC50 [1]: 10.2 nM

B7: M6 (PTM mutant of BA6 IgG) (antibody, V domains shown)
VH: EVQLLESGGGLVQPGGSLRLSCAASGFTFSNYDMSWVRQAPGKGLEWVSAIYHSGSSKYYADSVKGRFTISRDNSKNTLYLQMNSLRAEDTAVYYCARGGNVAWDTGFDYWGQGTLVTVSS
VL: QSVLTQPPSASGTPGQRVTISCSGSSSNIGSNDVSWYQQLPGTAPKLLIYYDNNRPSGVPDRFSGSKSGTSASLAISGLRSEDEADYYCGAWDDSLSGYVFGGGTKLTVL
notes: IgG of BA6 with one CDRH3 mutation
EC50 [1]: 0.955 nM

B8: M5 (PTM mutant of BA6 IgG) (antibody, V domains shown)
VH: EVQLLESGGGLVQPGGSLRLSCAASGFTFSNYDMSWVRQAPGKGLEWVSAIYHSGSSKYYADSVKGRFTISRDNSKNTLYLQMNSLRAEDTAVYYCARGGNYAWDTGFDYWGQGTLVTVSS
VL: QSVLTQPPSASGTPGQRVTISCSGSSSNIGSNDVSWYQQLPGTAPKLLIYYDNNRPSGVPDRFSGSKSGTSASLAISGLRSEDEADYYCGAWDDSLSGYVFGGGTKLTVL
notes: as for B7
EC50 [1]: 3.27 nM

B10: M3 (PTM mutant of BA6 IgG) (antibody, V domains shown)
VH: EVQLLESGGGLVQPGGSLRLSCAASGFTFSNYDMSWVRQAPGKGLEWVSAIYHSGSSKYYADSVKGRFTISRDNSKNTLYLQMNSLRAEDTAVYYCARGGNGAWDTGFDYWGQGTLVTVSS
VL: QSVLTQPPSASGTPGQRVTISCSGSSSNIGSNDVSWYQQLPGTAPKLLIYYENNRPSGVPDRFSGSKSGTSASLAISGLRSEDEADYYCGAWDDSLSGYVFGGGTKLTVL
notes: as for B6
EC50 [1]: 0.333 nM
EC50 [4]: 0.478 nM
EC50 [6]: 0.189 nM
EC50 [7]: 0.755 nM

B11: M4 (PTM mutant of BA6 IgG) (antibody, V domains shown)
VH: EVQLLESGGGLVQPGGSLRLSCAASGFTFSNYDMSWVRQAPGKGLEWVSAIYHSGSSKYYADSVKGRFTISRDNSKNTLYLQMNSLRAEDTAVYYCARGGNGAWDTGFDYWGQGTLVTVSS
VL: QSVLTQPPSASGTPGQRVTISCSGSSSNIGSNDVSWYQQLPGTAPKLLIYYSNNRPSGVPDRFSGSKSGTSASLAISGLRSEDEADYYCGAWDDSLSGYVFGGGTKLTVL
notes: as for B6
EC50 [1]: 10.2 nM

Results, then the binder that gave them:

EC50 [2]: 0.299 nM
B2: BA6 IgG(NA) (antibody, V domains shown)
VH: EVQLLESGGGLVQPGGSLRLSCAASGFTFSNYDMSWVRQAPGKGLEWVSAIYHSGSSKYYADSVKGRFTISRDNSKNTLYLQMNSLRAEDTAVYYCARGGNGAWDTGFDYWGQGTLVTVSS
VL: QSVLTQPPSASGTPGQRVTISCSGSSSNIGSNDVSWYQQLPGTAPKLLIYYDNNRPSGVPDRFSGSKSGTSASLAISGLRSEDEADYYCGAWDDSLSGYVFGGGTKLTVLG

EC50 [4]: 7.56 nM
B4: M8 (PTM mutant of BA6 IgG) (antibody, V domains shown)
VH: EVQLLESGGGLVQPGGSLRLSCAASGFTFSNYDMSWVRQAPGKGLEWVSAIYHSGSSKYYADSVKGRFTISRDNSKNTLYLQMNSLRAEDTAVYYCARGGGGAWDTGFDYWGQGTLVTVSS
VL: QSVLTQPPSASGTPGQRVTISCSGSSSNIGSNDVSWYQQLPGTAPKLLIYYDNNRPSGVPDRFSGSKSGTSASLAISGLRSEDEADYYCGAWDDSLSGYVFGGGTKLTVL
notes: IgG of BA6 with one CDRH3 mutation; Kabat H97 (same column as M9)

EC50 [5]: 1.08 nM
B5: M9 (PTM mutant of BA6 IgG) (antibody, V domains shown)
VH: EVQLLESGGGLVQPGGSLRLSCAASGFTFSNYDMSWVRQAPGKGLEWVSAIYHSGSSKYYADSVKGRFTISRDNSKNTLYLQMNSLRAEDTAVYYCARGGSGAWDTGFDYWGQGTLVTVSS
VL: QSVLTQPPSASGTPGQRVTISCSGSSSNIGSNDVSWYQQLPGTAPKLLIYYDNNRPSGVPDRFSGSKSGTSASLAISGLRSEDEADYYCGAWDDSLSGYVFGGGTKLTVL
notes: IgG of BA6 with one CDRH3 mutation; Kabat H97

EC50 [2]: 12.5 nM
B9: M7 (PTM mutant of BA6 IgG) (antibody, V domains shown)
VH: EVQLLESGGGLVQPGGSLRLSCAASGFTFSNYDMSWVRQAPGKGLEWVSAIYHSGSSKYYADSVKGRFTISRDNSKNTLYLQMNSLRAEDTAVYYCARGGNRAWDTGFDYWGQGTLVTVSS
VL: QSVLTQPPSASGTPGQRVTISCSGSSSNIGSNDVSWYQQLPGTAPKLLIYYDNNRPSGVPDRFSGSKSGTSASLAISGLRSEDEADYYCGAWDDSLSGYVFGGGTKLTVL
notes: as for B7

EC50 [4]: 2.76 nM
B12: M10 (PTM mutant of BA6 IgG) (antibody, V domains shown)
VH: EVQLLESGGGLVQPGGSLRLSCAASGFTFSNYDMSWVRQAPGKGLEWVSAIYHSGSSKYYADSVKGRFTISRDNSKNTLYLQMNSLRAEDTAVYYCARGGYGAWDTGFDYWGQGTLVTVSS
VL: QSVLTQPPSASGTPGQRVTISCSGSSSNIGSNDVSWYQQLPGTAPKLLIYYDNNRPSGVPDRFSGSKSGTSASLAISGLRSEDEADYYCGAWDDSLSGYVFGGGTKLTVL
notes: as for B4
